Experimental data: patent publication US8927205

Tests used:
[1] = target: TNFR1-Fas receptor chimera on mouse fibroblasts from TNFR1/TNFR2 double-knockout mice (MF TNFR1-Fas cells) (UniProt P19438); assay: cell-based or functional assay
[2] = target: normal human wild-type TNF receptors on Kym1 cells; assay: cell-based or functional assay

TNFR1-Fas receptor chimera on mouse fibroblasts from TNFR1/TNFR2 double-knockout mice (MF TNFR1-Fas cells), sequence (P19438 other isoform, or with tags, fused parts or gaps mutant limits assumed): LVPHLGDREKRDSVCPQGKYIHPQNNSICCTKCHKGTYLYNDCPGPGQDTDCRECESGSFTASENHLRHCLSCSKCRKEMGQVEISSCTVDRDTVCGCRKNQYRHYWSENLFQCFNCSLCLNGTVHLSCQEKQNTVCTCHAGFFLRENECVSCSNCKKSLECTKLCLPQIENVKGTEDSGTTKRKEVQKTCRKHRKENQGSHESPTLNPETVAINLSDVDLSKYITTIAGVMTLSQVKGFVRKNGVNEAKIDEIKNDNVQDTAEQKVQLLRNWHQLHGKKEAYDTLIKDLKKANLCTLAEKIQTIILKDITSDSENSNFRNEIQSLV

## soluble human wild-type TNF (from UniProt P01375 57-233) (ligand)
[1]
  ED50 (half-maximal effective concentration), cytotoxicity on MF TNFR1-Fas cells, freshly prepared dilutions: 0.2 ng/mL
  ED50, cytotoxicity on MF TNFR1-Fas cells, dilutions stored 8 days at 37° C. before the test: 2 ng/mL
  ED50, cytotoxicity on MF TNFR1-Fas cells, solutions stored 14 days at 37° C. before the test: 2.8 ng/mL
[2]
  ED50, cytotoxicity on Kym1 cells, solutions stored 16 days at 37° C. (FIG. 8): 1.2 ng/mL
  ED50 after 8 days (FIG. 12), stored at 37° C. in 100% human serum, cytotoxicity on Kym1 cells: 0.4 ng/mL
  ED50 after 22 days (FIG. 9), cytotoxicity on Kym1 cells, samples stored at 37° C.: 1.5 ng/mL
  ED50 freshly titrated (FIG. 7), cytotoxicity on Kym1 cells: 0.1 ng/mL
  ED50 freshly titrated (FIG. 11), diluted in 100% human serum, cytotoxicity on Kym1 cells: 0.004 ng/mL
